Reference: the supplement of paper PMC9112550, “Optimization of the antimicrobial peptide Bac7 by deep mutational scanning” (BMC Biology, 2022)

System: Escherichia coli TOP10
Assay: shrunken log2 fold change of peptide-encoding DNA abundance (4.5 h post-induction vs induction); higher = less antimicrobial activity (less host growth inhibition)
Settings: time post-induction: 4.5 h; library: site-saturation at positions 5, 18, 19, 20
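Also: peptides expressed intracellularly from a pBAD plasmid library in pooled LB shake-flask culture, induced with 0.3% L-arabinose, DNA abundance read by NGS, three biological replicates, DESeq2 with apeglm shrinkage.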

Sequence	shrunken log2 fold change
RRIRRRPPRLPRPRPRPFWMPRP	0.0323
RRIRPRPPRLPRPRPRPFNYPRP	-0.269
RRIRIRPPRLPRPRPRPKMNPRP	-0.954
RRIRDRPPRLPRPRPRPRKAPRP	-0.0143
RRIRTRPPRLPRPRPRPAFAPRP	0.282
RRIRIRPPRLPRPRPRPFHQPRP	-0.961
RRIRWRPPRLPRPRPRPEYVPRP	0.214
RRIRHRPPRLPRPRPRPTQYPRP	0.124
RRIRIRPPRLPRPRPRPRFVPRP	-0.104
RRIRRRPPRLPRPRPRPYAAPRP	0.395
RRIRTRPPRLPRPRPRPRYPPRP	-0.516
RRIRERPPRLPRPRPRPAYIPRP	-0.168
RRIRPRPPRLPRPRPRPVRSPRP	0.371
RRIRMRPPRLPRPRPRPFEKPRP	0.00408
RRIRARPPRLPRPRPRPMHLPRP	-0.00822
RRIRERPPRLPRPRPRPFGLPRP	-0.0181
RRIRIRPPRLPRPRPRPGHKPRP	-0.363
RRIRNRPPRLPRPRPRPFLMPRP	-0.0732
RRIRERPPRLPRPRPRPIIEPRP	0.0238
RRIRIRPPRLPRPRPRPDELPRP	0.0623
RRIRTRPPRLPRPRPRPETGPRP	-0.00371
RRIRPRPPRLPRPRPRPQWHPRP	-0.176
RRIRIRPPRLPRPRPRPINPPRP	-0.362
RRIRERPPRLPRPRPRPINVPRP	0.017
RRIRARPPRLPRPRPRPYATPRP	0.0217

Sequence	shrunken log2 fold change
RRIRDRPPRLPRPRPRPAKYPRP	-0.315
RRIRSRPPRLPRPRPRPQDDPRP	-0.351
RRIRDRPPRLPRPRPRPYAFPRP	-0.187
RRIRRRPPRLPRPRPRPGEYPRP	0.264
RRIRYRPPRLPRPRPRPIFEPRP	-0.833
RRIRWRPPRLPRPRPRPNFQPRP	0.0517
RRIRWRPPRLPRPRPRPTHGPRP	-0.0242
RRIRARPPRLPRPRPRPGGKPRP	0.563
RRIRMRPPRLPRPRPRPQSFPRP	-0.199
RRIRERPPRLPRPRPRPSWLPRP	0.177
RRIRIRPPRLPRPRPRPNVLPRP	-0.349
RRIRNRPPRLPRPRPRPAYPPRP	0.0183
RRIRMRPPRLPRPRPRPVKDPRP	0.0812
RRIRYRPPRLPRPRPRPGLVPRP	-0.217
RRIRFRPPRLPRPRPRPGSQPRP	-0.117
RRIRMRPPRLPRPRPRPAPYPRP	0.576
RRIRYRPPRLPRPRPRPDRTPRP	-0.0309
RRIRIRPPRLPRPRPRPSDIPRP	-0.366
RRIRMRPPRLPRPRPRPNSNPRP	-0.177
RRIRFRPPRLPRPRPRPPRNPRP	0.263
RRIRCRPPRLPRPRPRPRPVPRP	0.766
RRIRKRPPRLPRPRPRPLAYPRP	0.259
RRIRVRPPRLPRPRPRPKSMPRP	-0.362
RRIRGRPPRLPRPRPRPCCWPRP	0.878
RRIRSRPPRLPRPRPRPHLLPRP	-0.097

Sequence	shrunken log2 fold change
RRIRTRPPRLPRPRPRPCGWPRP	0.0147
RRIRSRPPRLPRPRPRPDDDPRP	-0.0062
RRIRQRPPRLPRPRPRPNDVPRP	0.00724
RRIRPRPPRLPRPRPRPMCVPRP	0.076
RRIRYRPPRLPRPRPRPMLMPRP	-0.13
RRIRLRPPRLPRPRPRPLSNPRP	-0.782
RRIRRRPPRLPRPRPRPYWIPRP	-0.918
RRIRMRPPRLPRPRPRPCRWPRP	0.00911
RRIRARPPRLPRPRPRPISSPRP	-0.102
RRIRRRPPRLPRPRPRPGAWPRP	-9.3e-05
RRIRVRPPRLPRPRPRPIEAPRP	-0.00729
RRIRARPPRLPRPRPRPLKPPRP	0.464
RRIRCRPPRLPRPRPRPHPYPRP	-0.296
RRIRYRPPRLPRPRPRPCDMPRP	-0.01
RRIRKRPPRLPRPRPRPDCCPRP	0.435
RRIRNRPPRLPRPRPRPFCTPRP	-0.351
RRIRYRPPRLPRPRPRPWLTPRP	-0.558
RRIRLRPPRLPRPRPRPVWSPRP	0.0624
RRIRERPPRLPRPRPRPWVHPRP	-0.0432
RRIRIRPPRLPRPRPRPPGDPRP	-0.0965
RRIRIRPPRLPRPRPRPQAQPRP	-0.108
RRIRYRPPRLPRPRPRPRAIPRP	-0.36
RRIRGRPPRLPRPRPRPPQSPRP	1.27
RRIRFRPPRLPRPRPRPNDNPRP	-0.616
RRIRQRPPRLPRPRPRPRPRPRP	0.414

Sequence	shrunken log2 fold change
RRIRRRPPRLPRPRPRPRRYPRP	0.0835
RRIRYRPPRLPRPRPRPSCQPRP	-0.296
RRIRTRPPRLPRPRPRPFDIPRP	-0.018
RRIRERPPRLPRPRPRPGWLPRP	0.256
RRIRDRPPRLPRPRPRPQKTPRP	-0.253
RRIRWRPPRLPRPRPRPGNAPRP	0.146
RRIRERPPRLPRPRPRPKPTPRP	0.148
RRIRQRPPRLPRPRPRPGWRPRP	2.71
RRIRMRPPRLPRPRPRPPLRPRP	0.852
RRIRWRPPRLPRPRPRPSPLPRP	-0.26
RRIRRRPPRLPRPRPRPWSWPRP	-0.0122
RRIRQRPPRLPRPRPRPHSVPRP	-0.0178
RRIRIRPPRLPRPRPRPRRQPRP	0.0868
RRIRVRPPRLPRPRPRPCQLPRP	-0.202
RRIRWRPPRLPRPRPRPCVEPRP	0.153
RRIRVRPPRLPRPRPRPDGNPRP	-0.189
RRIRMRPPRLPRPRPRPCVTPRP	0.0301
RRIRGRPPRLPRPRPRPGSNPRP	0.0237
RRIRARPPRLPRPRPRPFLPPRP	-0.379
RRIRERPPRLPRPRPRPPMGPRP	-0.107
RRIRQRPPRLPRPRPRPPAFPRP	0.379
RRIRSRPPRLPRPRPRPITSPRP	-0.0517
RRIRHRPPRLPRPRPRPRCSPRP	-0.236
RRIRMRPPRLPRPRPRPQIMPRP	-0.0466
RRIRSRPPRLPRPRPRPVVGPRP	0.267

Sequence	shrunken log2 fold change
RRIRCRPPRLPRPRPRPQLWPRP	0.366
RRIRYRPPRLPRPRPRPSGPPRP	-0.395
RRIRSRPPRLPRPRPRPNDWPRP	0.179
RRIRMRPPRLPRPRPRPDREPRP	-0.00516
RRIRIRPPRLPRPRPRPGWLPRP	-0.0831
RRIRIRPPRLPRPRPRPMCMPRP	-0.216
RRIRLRPPRLPRPRPRPQRIPRP	-0.141
RRIRERPPRLPRPRPRPYLPPRP	-0.392
RRIRERPPRLPRPRPRPGQTPRP	-0.0328
RRIRNRPPRLPRPRPRPPMCPRP	0.154
RRIRPRPPRLPRPRPRPSNIPRP	-1.15
RRIRIRPPRLPRPRPRPGRGPRP	0.268
RRIRGRPPRLPRPRPRPDILPRP	0.785
RRIRLRPPRLPRPRPRPWDIPRP	-0.0445
RRIRMRPPRLPRPRPRPQWFPRP	-0.0662
RRIRDRPPRLPRPRPRPIVFPRP	-0.0706
RRIRERPPRLPRPRPRPHIPPRP	-0.682
RRIRQRPPRLPRPRPRPDQLPRP	-0.263
RRIRKRPPRLPRPRPRPECNPRP	0.0503
RRIRPRPPRLPRPRPRPRFDPRP	0.197
RRIRCRPPRLPRPRPRPNATPRP	0.382
RRIRMRPPRLPRPRPRPFRLPRP	-0.1
RRIRDRPPRLPRPRPRPREAPRP	-0.0547
RRIRCRPPRLPRPRPRPKLSPRP	0.22
RRIRWRPPRLPRPRPRPSKMPRP	-0.0978

Sequence	shrunken log2 fold change
RRIRHRPPRLPRPRPRPTKSPRP	-0.0287
RRIRRRPPRLPRPRPRPPMWPRP	0.548
RRIRCRPPRLPRPRPRPQTTPRP	-0.155
RRIRWRPPRLPRPRPRPSMHPRP	-0.0863
RRIRARPPRLPRPRPRPTGVPRP	0.439
RRIRERPPRLPRPRPRPLCTPRP	-0.364
RRIRRRPPRLPRPRPRPAIKPRP	0.304
RRIRPRPPRLPRPRPRPVNWPRP	0.297
RRIRHRPPRLPRPRPRPVCLPRP	-0.0609
RRIRRRPPRLPRPRPRPLNWPRP	0.296
RRIRDRPPRLPRPRPRPCSDPRP	0.0293
RRIRFRPPRLPRPRPRPGKVPRP	-0.216
RRIRLRPPRLPRPRPRPATRPRP	0.145
RRIRYRPPRLPRPRPRPYLYPRP	-0.109
RRIRNRPPRLPRPRPRPGGLPRP	-0.13
RRIRWRPPRLPRPRPRPTWDPRP	0.395
RRIRERPPRLPRPRPRPGYTPRP	0.0628
RRIRWRPPRLPRPRPRPFSPPRP	0.0392
RRIRWRPPRLPRPRPRPLNVPRP	-0.0654
RRIRHRPPRLPRPRPRPQECPRP	-0.0126
RRIRLRPPRLPRPRPRPFATPRP	-0.0878
RRIRWRPPRLPRPRPRPYWTPRP	-0.175
RRIRQRPPRLPRPRPRPTLMPRP	0.369
RRIRPRPPRLPRPRPRPPPNPRP	0.743
RRIRDRPPRLPRPRPRPLTDPRP	0.0638
